Publication PMC4890720 (Methods in molecular biology (Clifton, N.J.), 2012)

Target: thioredoxin (1–73) (E. coli, UniProt P0AA25 2-74 = thioredoxin)
Experiment: magic angle spinning solid-state NMR

Chain of thioredoxin (1–73) (P0AA25 2-74): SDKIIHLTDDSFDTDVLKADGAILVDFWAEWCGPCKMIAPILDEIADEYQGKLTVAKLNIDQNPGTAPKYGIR

GIPTLLLFKNGEVAATKVGALSKGQLKEFLDANLA (domain or fragment, E. coli, UniProt P0AA25 75-109, looked up) [thioredoxin (74–108)]
binding result: binds
